Laboratory results: the nanobody polyreactivity screen of Harvey et al. (2022)

Test: yeast display, Sf9 membrane polyspecificity reagent, FACS + sequencing; frameworks hold sequencing errors
Outline: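 Polyreactivity labels are assigned by the sorting gate from which each nanobody was recovered. The gates were low and high (top ~1%), set on anti-HA fluorescence for expression and streptavidin fluorescence for reagent binding. Before sorting, galactose-induced (36–48 hours) yeast display cells were stained for 1 hour at 4 °C with 10% biotinylated, detergent-solubilized Sf9 membrane reagent.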

Row | Sequence | polyreactivity (PSR sort gate)
1 | QVQLVESGGGLVQAGGSLRLSCAASGITFYVNAMGWYRQAPGKERELVASISTGGSTNYADSVKGRFTISRDNAKNTVYLQMNSLKPEDTAVYYCAARVDYHPSLRDYWGQGTQVTVSS | low polyreactivity
2 | QVQLVESGGGLVQAGGSLRLSCAASGITFYVYALRWYRQAPGKERELVASISWIGGRTYYADSVKGRFTISRDNAKNTVYVQMNSLKPEDTAVYYCAARAYSYWSGLDYWGQGTQVTVSS | high polyreactivity
3 | QVQLVESGGGLVQAGGSLRLSCAASGITFYVYDMGWYRQAPGKERELVAAISWSGGSTYYADSVKGRFTISRDNAKNTVYLQMNSLKPEDTAVYYCAAEVEYWYELYDYWGQGTQVTVSS | high polyreactivity
4 | QVQLVESGGGLVQAGGSLRLSCAASGITFYWYAMGWYRQAPGKERELVAAISSGGSTYYADSVKGRFTISRDNAKNTVYLQMNSLKPEDTAVYYCAAAFRYTPLSDHGYWGQGTQVTVSS | high polyreactivity
5 | QVQLVESGGGLVQAGGSLRLSCAASGITFYYYAMGRYRQAPGKERELVAAIDTDGSTYYADSVKGRFTISRDNAKNTVYLQMNSLKPVDTAVYYCNAVGSRRSIPRVYYWGQGTQVNVSS | high polyreactivity
6 | QVQLVESGGGLVQAGGSLRLSCAASGITFYYYAMGWYRQAPGKERELVAAINWSGTSTYYADSVKGRFTISRDNAKNTVYLQMNSLKPEDTAVYYCNAERGRSFWWAYDYWGQGTQVTVSS | low polyreactivity
7 | QVQLVESGGGLVQAGGSLRLSCAASGITFYYYARGWYRQAPGKERELVAAINSGGITNYADSVKGRFTISRDNAKNTVFLQMNSLKPEDTAVYYCAASSGFRYRYGYWGQGTQVTVSS | high polyreactivity
8 | QVQLVESGGGLVQAGGSLRLSCAASGITFYYYTMGWYRTAPGKEREFVAVISGSGGSTYYADSVKGRFTISRDNAKNTVYLQMNSLKPEDTAVYYCAARNSFLAYFVGLIQEDDYWGQGTQVTVSS | high polyreactivity
9 | QVQLVESGGGLVQAGGSLRLSCAASGITIAGYAMGWYRQAPGKERELVAAITIGGRTYYADSVKGRFTISRDNAKNSVYLQMNSLKPEDTAVYYCAGVVRALTIKYGYWGQGTQVTVSS | high polyreactivity
10 | QVQLVESGGGLVQAGGSLRLSCAASGITIGYNAMGWYRQAPGKERELVATIRSGGSTYYADSVKGRFTISRDNAQKTVYLQMNSLKPEDTAVYYCNRDGYYYSTFDFDYWGQGTQVTVSS | low polyreactivity
11 | QVQLVESGGGLVQAGGSLRLSCAASGITIKYYTMGWYRQANGKERELVAAISRSGGSTYYADSVKGRFTISLDNAKNTVYLQMNSMIPEDTAVYYCAAERVAYRGVTFPYGYWGQGTQVTVSS | high polyreactivity
12 | QVQLVESGGGLVQAGGSLRLSCAASGITIPVYLGWYRQAPGKETELVAAISSGGSTYADSVKGRFTISRDNAKNTVYLQMNSLKPEDTAVYYCNADRWFGNYLHLTFLNDYWGQGTQVTVSS | low polyreactivity
13 | QVQLVESGGGLVQAGGSLRLSCAASGITIREYAMGWYRQAPGKERELVASISGGGGSTSYADSVKGRFTISRDNAKNTVYLQMNSLKPEDTAVYYCATRYAIAGWVGYYYWGQGTQVTVSS | low polyreactivity
14 | QVQLVESGGGLVQAGGSLRLSCAASGITIRRYAMGWYRQAPGKERELVAAISTSGGGTYYADSVKGRFTISRDNAKYTVYLQMNSLKPEDTAVYYCAARYLGYLLSGYPPYDYWGQGTQVTVSS | high polyreactivity
15 | QVQLVESGGGLVQAGGSLRLSCAASGITISWYAMGWYRQAPGKERELVAAITRTAGTNYADSVKGRFTISRDNAKNTVYLQMNSLKPEDTAVYYCAAVGHGGLLYWRNYGYGYWGQGTQVTVSS | low polyreactivity
16 | QVQLVESGGGLVQAGGSLRLSCAASGITIVNYVMGWYRQAPGKERELVAAISLGGGTYYADSVKGRFTISRDNAKNTVYLQMNSLKADDTAVYYGNASYGGLAFYIGVYVTGYDYWRQGTQVTVSS | low polyreactivity

Row | Sequence | polyreactivity (PSR sort gate)
17 | QVQLVESGGGLVQAGGSLRLSCAASGITIVYYTMGWYIQAPGKERELVASITWDGGSTYYADSVKGRFTISRDNAKNTVYLQMNSLKPEDTAVYYCNRDRVSGGKYNYWGQGTQVTVSS | low polyreactivity
18 | QVQLVESGGGLVQAGGSLRLSCAASGITIYGNAMGWYRQAPGKERELVAAITFSGGITYYADSVKGRFTISRDNAKNTVYLQMNSLKPEDTAVYYCATDPIGGWTRPQRYGDDYWGQGTQVTVSS | low polyreactivity
19 | QVQLVESGGGLVQAGGSLRLSCAASGITIYGYAMGWYRQAPGKERELVAAITRSGGRTYYADSVKGRFTISRDNAKNTVYLQMNSLKPEDTAVYYCAKDMNDETAPYYYWGQGTQVTVSS | high polyreactivity
20 | QVQLVESGGGLVQAGGSLRLSCAASGITLAIYAMGWYRQAPGKERELVAAISSSGASTYYADSVKGRFTISRDNAKNTVYILMNSLKPEDTAVYYCAAAYGGSSYEYNYWGQGTQVTVSS | low polyreactivity
21 | QVQLVESGGGLVQAGGSLRLSCAASGITLAWYAMGWYRQAPGKERELVAAINSGGSTYYADSVKGRFTISRDNAKNTVYLQMNSLKPEDTAVYYCKTDDDSSSTGYYSWGQGTQVTVSS | low polyreactivity
22 | QVQLVESGGGLVQAGGSLRLSCAASGITLFGYAMGWYRQAPGKERELVAVITSDGGRTYYADSVKGRFTISRDNAKNTVYLQMNSLKPEDTAVYYCAARAYDRTSGYYYWGQGTQVTVSS | low polyreactivity
23 | QVQLVESGGGLVQAGGSLRLSCAASGITLFGYTMGWYRQAPGKERELVAAIRRRGVSTYYADSVKGRFTISRDNAKNTVYLQMNSLKPEDTAVYYCAKSLKPYTDYDYWGQGTQVTVSS | high polyreactivity
24 | QVQLVESGGGLVQAGGSLRLSCAASGITLFHYVKGWYRQAPGKERELVADITWRGGNTFYADSVKGRFTISRDNAKNTVYLQMNSLKPEDTAVYYCAVRQAYRTRDYDYWGQGTQVTVSS | high polyreactivity
25 | QVQLVESGGGLVQAGGSLRLSCAASGITLFHYVMGWYRQAPGKERELVAVISSSGGSTYYADSVKVRFTISRDNAKNSVYLHMNSLKQVDTAVYYGAAKRYNYWGQGTQVTVSS | high polyreactivity
26 | QVQLVESGGGLVQAGGSLRLSCAASGITLGAYAMGWYRQAPGKERELVAAISRSGGSTYYADSVKGRFTISRDNAKNTVYLQMNSLKPEDTAVYYCNAGITHGYDYWGQGTQLTVSS | high polyreactivity
27 | QVQLVESGGGLVQAGGSLRLSCAASGITLGGNGMGWYRQAPGKERELVAAISQSGGTTYYADSVKGRFTISRDNAKNTVYLQMNSLKPEDTAVYYCNALWRGHGRYNYWGQGTQVTVSS | low polyreactivity
28 | QVQLVESGGGLVQAGGSLRLSCAASGITLGRYAMGWYRQAPGKERALVAAIPRSGGSTYYADSVKGRFTISRDNAKNTVYLQMNSLKPEDTAVYYCNRRVYPTSDYDYWGQGTQVTVSS | high polyreactivity
29 | QVQLVESGGGLVQAGGSLRLSCAASGITLGYYAMGWYRQAPGKERELVAAISYRGGNTYYADSVKGRFTISRDNAKNTVYLQMNSLKPEDTAVYYCNADLGYESGWWSKYDYWGQGNQVTVSS | low polyreactivity
30 | QVQLVESGGGLVQAGGSLRLSCAASGITLGYYVMGCYRPAPGKERELVAAISSSGGRTYYADSVKGRFTISRDTAKNTVYLQMNCLKPEDTAVYYCAADVGRGIYDYWGQGNQVTVSS | low polyreactivity
31 | QVQLVESGGGLVQAGGSLRLSCAASGITLKRYAMGWYRQAPGTERELVAAITTSGGSTYYADSVKGRFTISRDTAKNTVYLQMNSLKPEDTAVYYCNAEDYWGKYYYWGQGTQVTVSS | low polyreactivity
32 | QVQLVESGGGLVQAGGSLRLSCAASGITLLVNAMGWYRQAPGKERELVAAISGSSGGSTYYADSVKGRFTISRDNAKNTVYLQMNSLKPEDTAVYYCAKRKWYWGLSYIYDSWGQGTQVTVSS | low polyreactivity
